Target: Hepatitis B e antigen (HBeAg), purified (hepatitis B virus)
Assay: SEC-MALS

Substance “Hepatitis B e antigen (HBeAg), purified (natural protein)” has a stoichiometry N of 2.

— paper PMC6618080
